Biological target: T1, Veg1 (unfused three-finger ZFP) (Artificial (human SP1 backbone), UniProt P08047 SEQ:1-99)
T1 chain: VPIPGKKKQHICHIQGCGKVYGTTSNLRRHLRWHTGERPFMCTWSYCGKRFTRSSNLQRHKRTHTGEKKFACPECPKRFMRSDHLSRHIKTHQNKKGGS
Assay: EMSA; apparent Kd (half-maximal binding), 100 mM KCl, 1 mM MgCl2, 100 uM ZnCl2, room temperature; not corrected for purity
Conditions: tags: none, expressed in E. coli BL21/DE3 from pET15b, >50% pure; label: 5' 32P top strand
Description: Assays for binding of Veg1 to the target oligonucleotide (above) were performed by titrating protein against a fixed amount of duplex target. Binding reactions contained 50 pM 5′ ³²P labeled double stranded target DNA, 10 mM Tris-HCl (pH 7.5), 100 mM KCl, 1 mM MgCl₂, 1 mM dithiothreitol, 10% glycerol, 200 μg/ml bovine serum albumin, 0.02% NP-40, 20 μg/ml poly dI-dC (optionally), and 100 μM ZnCl₂, in a final volume of 20 μl. Protein was added to the binding reaction as one-fifth volume from a dilution series made in 200 mM NaCl, 20 mM Tris (pH 7.5), 1 mM DTT. Binding was allowed to proceed for 45 min at room temperature. Polyacrylamide gel electrophoresis was carried out at room temperature using precast 10% or 10-20% Tris-HCl gels (BioRad, Hercules, Calif.) and Tris-Glycine running buffer (25 mM Tris-HCl, 192 mM glycine, pH 8.3) containing 0.1 mM ZnCl₂. Radioactive signals were quantitated with a Phosphorimager.
Shifted product, indicative of labeled target with bound protein, is indicated by an arrow in FIG. 2A. The amount of shifted product was determined at each protein concentration and quantitated on a Phosphorimager (Molecular Dynamics). The relative signal (percent of maximal amount of shifted product) was plotted as a function of log₁₀ protein concentration. […]

B1: Veg1 29-mer target duplex (dsDNA)
DNA 1: CATGCATAGCGGGGAGGATCGCCATCGAT
DNA 2: ATCGATGGCGATCCTCCCCGCTATGCATG
Question: With B1 as the binder, how does the Kd read?
Answer: The Kd was about 50 nM.

From patent US20030049649, “Targeted modification of chromatin structure” (published 2003)
